Test results as given in patent US5889173A, “DNA encoding multifunctional neurothrophic factors” (priority 1996, dated 1999).

B1: wt NGF: recombinant wild-type rat nerve growth factor (SEQ ID NO. 1) produced in COS cells (protein)
chain: SSTHPVFHMGEFSVCDSVSVWVGDKTTATDIKGKEVTVLGEVNINNSVFKQYFFETKCRAPNPVESGCRGIDSKHWSNYCTTTHTFVKALTTDDKQAAWRFIRIDTACVCVLSRKAARRG
B2: PNT-1: NT-3 with variable region V replaced from BDNF and amino terminus (residues 3-9) replaced from NGF (protein)
chain: B1 chain
B3: wt BDNF: recombinant wild-type brain-derived neurotrophic factor (SEQ ID NO. 2) produced in COS cells (protein)
chain: HSDPARRGELSVCDSISEWVTAADKKTAVDMSGGTVTVLEKVPVSKGQLKQYFYETKCNPMGYTKEGCRGIDKRHWSNQCRTTQSYVRALTMDSKKRIGWRFIRIDTSCVCTLTIKRGR

Legend:
[1] = tested on: E8 chick sympathetic ganglia; test: Neurite outgrowth from explanted E8 chick sympathetic ganglia; type: cell-based; conditions: for Biological Activity % of wild type (neurite outgrowth, sympathetic ganglia): explants of embryonic sympathetic ganglia, relative to wt NGF
Experimental: Fibre outgrowth was scored on a semiquantitative scale in biological units (BU) by comparison to standards obtained with purified mouse NGF, for which 1 BU is equivalent to approximately 5ng/ml. The concentration of each protein that gave 0.6 BU in this scale was determined, and used to calculate the relative activity compared to that obtained with wt NGF.

[2] = tested on: dissociated E8 chick sympathetic neurons; test: Survival of dissociated E8 chick sympathetic neurons; type: cell-based; conditions: 2 ng/ml
Experimental: (§1) Dissociated neurons from chick E8 sympathetic and nodose ganglia were preplated on plastic for 2 hr and then cultured in 96 well-plates coated with poly-L-ornithine and laminin at a density of 800-1000 cells/well. Serial dilutions of conditioned media containing equivalent amounts of recombinant proteins were added at the time of plating and neuronal survival was determined after 36-48 hr by phase contrast microscopy, scoring the number of surviving neurons in the entire well.

[3] = tested on: dissociated E8 chick nodose neurons; test: Survival of dissociated E8 chick nodose ganglion neurons; type: cell-based; conditions: for Nodose neurons rescued (survival): saturating concentrations (20-50 ng/ml)
Experimental: as §1

TrkB and TrkA = conditions: literature; cited from earlier work
TrkA [4] = test: Competitive TrkA receptor binding: displacement of 125I-NGF from rtrkA-3T3 cells; conditions: 125I-NGF displacement, relative binding from IC50 versus wt NGF
Experimental: NIH3T3 fibroblasts expressing TrkA, TrkB or TrkC were used at 2 to 1-33 10^6 cells/ml. […] All components were added at the same time and the cells were collected by centrifugation after equilibrium was reached (90-120 minutes incubation). Cell pellets were then counted in a gamma counter. […] Nonspecific binding was measured in a parallel incubation to which 300 to 1000-fold molar excess of unlabelled purified factor was added.

TrkB [5] = test: Competitive TrkB receptor binding: displacement of 125I-BDNF from rtrkB-3T3 cells; conditions: for Receptor Binding % of wild type (TrkB): rtrkB-3T3 cells, 125I-BDNF displacement, relative binding from IC50 versus wt BDNF
Experimental: Purified mouse NGF and BDNF were labeled with ^125 I by the lactoperoxidase method to an average specific activity of 1×10^8cpm/μg. For the labeling of BDNF, the modifications described by Rodriguez-Tebar et al. ([Rodriguez-Tebar, 1992]) were used. NIH3T3 fibroblasts expressing TrkA, TrkB or TrkC were used at 2 to 1-33 10^6 cells/ml. Steady state binding was measured in competition assays performed at 4° C. using 1.5×10^-9 M ^125 I-BDNF and serial dilutions of conditioned media containing equivalent amounts of wt or mutated NGF protein. All components were added at the same time and the cells were collected by centrifugation after equilibrium was reached (90-120 minutes incubation). Cell pellets were then counted in a gamma counter. […] Nonspecific binding was measured in a parallel incubation to which 300 to 1000-fold molar excess of unlabelled purified factor was added. All results were corrected for this nonspecific binding, which was less than 10% (for NGF) or 30% (for BDNF) of total binding. The concentration of each chimeric, mutant and wild type molecule that gave 50% binding (IC50) was determined, and relative binding was calculated using the relationship:(mutant IC50 /wild type IC50)×100.

TrkA [6] = test: Tyrosine phosphorylation of TrkA receptors in rtrkA-3T3 cells; type: cell-based; conditions: 100 ng/ml
Experimental: (§2) Plates were incubated 15 minutes at 4° C. after which insoluble material was removed by centrifugation. Cell lysates were normalized for protein content before immunoprecipitation. […] After 2 hr at 4° C., immunocomplexes were collected with Protein A-Sepharose (Pharmacia, Sweden), washed in lysis buffer and boiled for 5 minutes before SDS/PAGE. After electrophoresis, gels were blotted to nitrocellulose membranes, reacted with anti-phosphotyrosine monoclonal antibody 4G10 (UBI, New York) and developed with the ECL Western Detection System (Amersham, UK). Appropriately exposed autoradiograms of phosphotyrosine blots were used for densitometric scanning.

TrkC = test: Tyrosine phosphorylation of TrkC receptors in Trk-expressing cells; type: cell-based; conditions: 100 ng/ml
Experimental: A confluent 10 cm plate containing about 10^7 rtrk-3T3 or rtrkB-3T3 cells was treated for 5 minutes at 37° C. with wt, chimeric or mutant factors and subsequently lysed with 1 ml of ice-cold buffer containing 1% NP40, 20 mM Tris pH 8.0, 137 mM NaCl, 2 mM EDTA, 10% glycerol, 1 mM PMSF, 0.15 U/ml aprotinin, 20 μM leupeptine and 1 mM Na orthovanadate. Plates were incubated 15 minutes at 4° C. after which insoluble material was removed by centrifugation. Cell lysates were normalized for protein content before immunoprecipitation. Trk immunoprecipitation was performed by incubating lysates with 1 μl of anti-TrkB polyclonal antiserum 443 ([Soppet, 1991]) which recognizes TrkA, TrkB and TrkC. After 2 hr at 4° C., immunocomplexes were collected with Protein A-Sepharose (Pharmacia, Sweden), washed in lysis buffer and boiled for 5 minutes before SDS/PAGE. After electrophoresis, gels were blotted to nitrocellulose membranes, reacted with anti-phosphotyrosine monoclonal antibody 4G10 (UBI, New York) and developed with the ECL Western Detection System (Amersham, UK). Appropriately exposed autoradiograms of phosphotyrosine blots were used for densitometric scanning.

TrkB [7] = test: Tyrosine phosphorylation of TrkB receptors in rtrkB-3T3 cells; type: cell-based
Experimental: as §2

Row | Molecule | Biological activity, neurite outgrowth from sympathetic ganglia (in words) [1] | Survival of dissociated sympathetic neurons (in words) [2] | Nodose neurons rescued (survival) [3] [%] | Efficiency to mediate biological effects through TrkB and TrkA lower than BDNF or NGF (TrkB and TrkA) | Receptor Binding % of wild type (TrkA) (TrkA [4]) | Receptor Binding % of wild type (TrkB) (TrkB [5]) | Biological Activity % of wild type (neurite outgrowth, sympathetic ganglia) [1] | Survival of nodose neurons (in words) [3] | TrkA tyrosine phosphorylation / activation (in words) (TrkA [6]) | TrkB receptor binding (in words) (TrkB [5]) | Potency in neurite outgrowth from sympathetic ganglia lower than wild type NGF ([1]; dose-response curves) [fold] | TrkC tyrosine phosphorylation (in words) (TrkC) | Increase of nodose neuron survival compared to NT-3 ([3]; saturating concentrations) [fold] | TrkB tyrosine phosphorylation / activation (in words) (TrkB [7]; 100 ng/ml) | EC50 of TrkB receptor phosphorylation (TrkB [7]; dose-response, densitometric scanning of phosphotyrosine blots, rtrkB-3T3 cells) [ng/mL]
1 | wild-type NT-3: recombinant wild-type rat neurotrophin-3 (SEQ ID NO. 3) produced in COS cells [reference compound] | only a marginal effect | no survival | 25 | about 100 fold | about 3 % of wild type | – | – | – | – | – | – | – | – | – | –
2 | B1 | – | – | – | – | 100 % of wild type | < 0,2 % of wild type | 100 % of wild type | failed to rescue neurons | – | – | – | – | – | – | –
3 | B2 | efficiently stimulated neurite outgrowth | correlated with survival of dissociated sympathetic neurons | 45 | – | ~50 % of wild type | – | – | – | efficient tyrosine phosphorylation | not changed | 15 | efficient tyrosine phosphorylation | ~2 | efficient tyrosine phosphorylation | –
4 | B3 | – | – | 40 | – | < 0,2 % of wild type | 100 % of wild type | < 0,2 % of wild type | – | – | – | – | – | – | – | 5
